# Where a chain is given by its changes, count along the chain named.
# B1: 22009 (protein)
# chain: MALPVTALLLPLALLLHAARPLEGKPIPNPLLGLDSTGSGEDLKNVFPPEVAVFEPSKAEIAHTQKATLVCLATGFYPDHVELSWWVNGKEVHSGVCTDPQPLKEQPALNDSRYCLSSRLRVSATFWQNPRNHFRCQVQFYGLSENDEWTQDRAKPVTQIVSAEAWGRADCGITSASYHQGVLSATILYEILLGKATLYAVLVSALVLMAMVKRKDSRGRAKRSGSGATNFSLLKQAGDVEENPGPTSTMDWIWRILFLVGAATGAHSQLQLQESGPGLVKPSETLSLTCTVSGGSVSSSSYYWGWIRQPPGKRLELIGSIYYGGSTYFNPSLKSRVTISVDTSKNQFSLKLSSVTAADTAVYYCAGGDTYGPVGQWPSDYRGQGTLVTVSSGGGGSGGGSFEVQLLESGGGLVQPGGSLRLSCAASGFIFSIYAMSWVRQAPGKGLEWVSGISGSGVNTYYADSVKGRFIISRDNSRNTVYLQMNSLRADDTAVYHCANGKGWDGNTWYEDYRGQGTLVTVSSTREQKLISEEDGSGIQNPDPAVYQLRDSKSSDKSVCLFTDFDSQTNVSQSKDSDVYITDKCVLDMRSMDFKSNSAVAWSNKSDFACANAFNNSIIPEDTFFPSSDVPCDVKLVEKSFETDTNLNFQNLSVIGFRILLLKVAGFNLLMTLRLWSSRAKRSGSGVKQTLNFDLLKLAGDVESNPGPSRGHMTEYKPTVRLATRDDVPRAVRTLAAAFADYPATRHTVDPDRHIERVTELQELFLTRVGLDIGKVWVADDGAAVAVWTTPESVEAGAVFAEIGPRMAELSGSRLAAQQQMEGLLAPHRPKEPAWFLATVGVSPDHQGKGLGSAVVLPGVEAAERAGVPAFLETSAPRNLPFYERLGFTVTADVEVPEGPRTWCMTRKPGA
# B2: 21998 (protein)
# chain: MDWIWRILFLVGAATGAHSQLQLQESGPGLVKPSETLSLTCTVSGGSVSSSSYYWGWIRQPPGKRLELIGSIYYGGSTYFNPSLKTRVTISVDTSKNQFSLKLSSVTAADTAVYYCAGGDTYGPVGQWPSDYRGQGTLVTVSSLEDLKNVFPPEVAVFEPSEAEISHTQKATLVCLATGFYPDHVELSWWVNGKEVHSGVCTDPQPLKEQPALNDSRYCLSSRLRVSATFWQNPRNHFRCQVQFYGLSENDEWTQDRAKPVTQIVSAEAWGRADCGFTSESYQQGVLSATILYEILLGKATLYAVLVSALVLMAMVKRKDSRGRAKRSGSGATNFSLLKQAGDVEENPGPTSMDWIWRILFLVGAATGAHSFEQVQLVESGGGLVQPGGSLRLSCAASGFTFTNHAMSWVRQAPGKGLELVSSISGNGRTTYYADSVKGRFTISRDISKNTLDLQMNSLRAEDTAVYYCAKDGGETLVDSRGQGTLVTVSSTRIQNPDPAVYQLRDSKSSDKSVCLFTDFDSQTNVSQSKDSDVYITDKCVLDMRSMDFKSNSAVAWSNKSDFACANAFNNSIIPEDTFFPSPESSCDVKLVEKSFETDTNLNFQNLSVIGFRILLLKVAGFNLLMTLRLWSSRAKRSGSGVKQTLNFDLLKLAGDVESNPGPSRGHMTEYKPTVRLATRDDVPRAVRTLAAAFADYPATRHTVDPDRHIERVTELQELFLTRVGLDIGKVWVADDGAAVAVWTTPESVEAGAVFAEIGPRMAELSGSRLAAQQQMEGLLAPHRPKEPAWFLATVGVSPDHQGKGLGSAVVLPGVEAAERAGVPAFLETSAPRNLPFYERLGFTVTADVEVPEGPRTWCMTRKPGA
# B3: 21996 (protein)
# chain: MALPVTALLLPLALLLHAARPQVQLVESGGGLVQPGGSLRLSCAASGFTFTNHAMSWVRQAPGKGLELVSSISGNGRTTYYADSVKGRFTISRDISKNTLDLQMNSLRAEDTAVYYCAKDGGETLVDSRGQGTLVTVSSLEDLKNVFPPEVAVFEPSEAEISHTQKATLVCLATGFYPDHVELSWWVNGKEVHSGVCTDPQPLKEQPALNDSRYCLSSRLRVSATFWQNPRNHFRCQVQFYGLSENDEWTQDRAKPVTQIVSAEAWGRADCGFTSESYQQGVLSATILYEILLGKATLYAVLVSALVLMAMVKRKDSRGRAKRSGSGATNFSLLKQAGDVEENPGPTSMDWIWRILFLVGAATGAHSFEVQLLESGGGLVQPGGSLRLSCAASGFIFSIYAMSWVRQAPGKGLEWVSGISGSGVNTYYAHSVKGRFIISRDNSRNTVYLQMNSLRADDTAVYHCANGKGWDGNTWYEDYRGQGTLVTVSSTRIQNPDPAVYQLRDSKSSDKSVCLFTDFDSQTNVSQSKDSDVYITDKCVLDMRSMDFKSNSAVAWSNKSDFACANAFNNSIIPEDTFFPSPESSCDVKLVEKSFETDTNLNFQNLSVIGFRILLLKVAGFNLLMTLRLWSSRAKRSGSGVKQTLNFDLLKLAGDVESNPGPSRGHMTEYKPTVRLATRDDVPRAVRTLAAAFADYPATRHTVDPDRHIERVTELQELFLTRVGLDIGKVWVADDGAAVAVWTTPESVEAGAVFAEIGPRMAELSGSRLAAQQQMEGLLAPHRPKEPAWFLATVGVSPDHQGKGLGSAVVLPGVEAAERAGVPAFLETSAPRNLPFYERLGFTVTADVEVPEGPRTWCMTRKPGA
# B4: 22014 (protein)
# chain: B3 chain with H430D
# B5: 21994 (protein)
# chain: MALPVTALLLPLALLLHAARPQVQLVESGGGLVQPGGSLRLSCAASGFTFTNHAMSWVRQAPGKGLELVSSISGNGRTTYYADSVKGRFTISRDISKNTLDLQMNSLRAEDTAVYYCAKDGGETLVDSRGQGTLVTVSSLEDLKNVFPPEVAVFEPSEAEISHTQKATLVCLATGFYPDHVELSWWVNGKEVHSGVCTDPQPLKEQPALNDSRYCLSSRLRVSATFWQNPRNHFRCQVQFYGLSENDEWTQDRAKPVTQIVSAEAWGRADCGFTSESYQQGVLSATILYEILLGKATLYAVLVSALVLMAMVKRKDSRGRAKRSGSGATNFSLLKQAGDVEENPGPTSMDWIWRILFLVGAATGAHSFEVQLLESGGGLVQPGGSLRLSCAASGFIFSSYAMSWVRQAPGKGQEWVSGVSGTGVNTYYADSVKGRFTISRDNSKNTLYLQMNSLRAEDTAVYYCASGKGWDSGSWYEDYRGQGTLVTVSSTRIQNPDPAVYQLRDSKSSDKSVCLFTDFDSQTNVSQSKDSDVYITDKCVLDMRSMDFKSNSAVAWSNKSDFACANAFNNSIIPEDTFFPSPESSCDVKLVEKSFETDTNLNFQNLSVIGFRILLLKVAGFNLLMTLRLWSSRAKRSGSGVKQTLNFDLLKLAGDVESNPGPSRGHMTEYKPTVRLATRDDVPRAVRTLAAAFADYPATRHTVDPDRHIERVTELQELFLTRVGLDIGKVWVADDGAAVAVWTTPESVEAGAVFAEIGPRMAELSGSRLAAQQQMEGLLAPHRPKEPAWFLATVGVSPDHQGKGLGSAVVLPGVEAAERAGVPAFLETSAPRNLPFYERLGFTVTADVEVPEGPRTWCMTRKPGA
# System: L363 cells
# Assay: JNG assay, co-culture with L363 cells
# Format: cell-based
# Settings: co-culture with L363
# Procedure: Cellular supernatant is collected and assayed for the induction of cytokines (e.g., IL2).
# JNG (Jurkat cells expressing EGFP under an NFAT promoter) were infected with lentiviral vectors encoding different single chain and multi-chain SARs by spinfection in the presence of 8 µg/ml of Polybrene® (Sigma, Catalog no. H9268). The Jurkat-NFAT-GFP cells are engineered in such a way that the IL-2 promoter, which carries NFAT binding sites, is cloned upstream of the GFP gene. These cells have been used to study signaling via TCR and CAR. The different SARs were stably expressed in Jurkat NFAT-GFP cells by lentiviral mediated gene transfer, followed by selection with puromycin or blasticidin. No drug selection was used in case the construct lacked an antibiotic resistance gene. The SAR-expressing Jurkat-NFAT-GFP cells were cocultured with the target cells at E:T ratio of approximately 1:2 for approximately 4 hours to 18 hours. When the interaction between SIRs and their target antigen results in activation of the NFAT pathway, GFP expression is induced. […] GFP expression was monitored by FACS analysis. The Jurkat-NFAT-GFP (parental) cells were used as control. The structure of different constructs can be determined based on their names. […] The sequence of the other constructs in the table can be similarly determined from their names and by referring to the different Tables of this disclosure that provide the names and SEQ ID NO of the different modules. Alternatively, the composition and modular architecture of the different SAR constructs can be determined from their sequences by bioinformatics tools, including using nucleic acid and amino acids homology searches. A SAR is considered positive in the assay in case the SAR expressing Jurkat-NFAT-GFP cells show greater % GFP positive cells when cultured with the target cell line as compared to parental Jurkat-NFAT-GFP cells. […] In general, the number +/-, +, 2+, 3+, 4+, 5+ refer to approximately 5%, 10%, 20%, 30%, 40% and 50% GFP positive cells. The % of GFP induction in the above assay is dependent not only the relative strength of the SAR but also, among other factors, on the relative level of expression of the SAR in the JNG cells and the relative level of expression of the target antigen in the target cell line. To control for the difference in gene transduction efficiency of the different SAR constructs, the experiment was conducted with JNG cells transduced with SAR constructs co-expressing a drug resistance gene (e.g., puromycin or PAC) followed by drug selection to generate a stable population of SAR-expressing cells. It is to be noted that the drug resistance gene (e.g., PAC) in the SAR constructs is optional and in vivo studies were conducted with SAR constructs lacking the PAC gene.
row,Molecule,NFAT-GFP ASSAY: L363
1,B1,"L363 (+/-) (refer to approximately 5%, 10%, 20%, 30%, 40% and 50% GFP positive cells)"
2,B2,"L363 (+) (refer to approximately 5%, 10%, 20%, 30%, 40% and 50% GFP positive cells)"
3,B3,"L363 (+) (refer to approximately 5%, 10%, 20%, 30%, 40% and 50% GFP positive cells)"
4,B4,"+/- (refer to approximately 5%, 10%, 20%, 30%, 40% and 50% GFP positive cells)"
5,B5,"L363 (+) (refer to approximately 5%, 10%, 20%, 30%, 40% and 50% GFP positive cells)"
